Reference: article PMC10239819

Legend:
[1] = target: C3b prepared from human EDTA plasma (human)
[2] = target: C3b prepared from human EDTA plasma (human); remark: listed apart in the source
Factor B (Homo sapiens) = Factor B (Homo sapiens) (UniProt P00751); conditions: cited from earlier work
[3] = target: C3bB, the AP C3 pro-convertase (factor B complexed with C3b) (human)

Chain of tag-free recombinant human factor D (mature FD) (P00746 26-253): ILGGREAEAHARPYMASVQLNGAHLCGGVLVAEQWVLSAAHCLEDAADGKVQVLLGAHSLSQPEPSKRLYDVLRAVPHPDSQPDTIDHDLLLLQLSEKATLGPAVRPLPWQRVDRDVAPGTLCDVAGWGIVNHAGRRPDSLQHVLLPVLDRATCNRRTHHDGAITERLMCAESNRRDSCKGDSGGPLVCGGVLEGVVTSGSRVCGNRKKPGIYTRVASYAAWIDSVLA
Chain of Factor B (Homo sapiens) (P00751 26-259): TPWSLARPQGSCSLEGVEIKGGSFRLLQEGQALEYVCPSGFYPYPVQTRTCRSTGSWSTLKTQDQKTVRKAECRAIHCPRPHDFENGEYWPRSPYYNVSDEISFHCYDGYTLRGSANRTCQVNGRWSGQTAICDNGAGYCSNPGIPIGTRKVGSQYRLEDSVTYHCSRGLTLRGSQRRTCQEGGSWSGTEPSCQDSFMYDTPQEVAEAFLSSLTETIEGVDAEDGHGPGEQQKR
Chain of C3b C3b (P01024 566-670): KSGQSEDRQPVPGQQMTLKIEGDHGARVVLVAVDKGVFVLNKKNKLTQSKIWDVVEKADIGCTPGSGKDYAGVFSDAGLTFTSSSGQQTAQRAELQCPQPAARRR

human, serum-derived, purified factor B (natural protein)
enhancement of the cleavage of FB by MASP-1cf (ratio of kobs/[E]T on C3bB and on free FB; SDS-PAGE densitometry of Bb, 37 °C) [1]: 100 fold | enhancement of the cleavage of FB by FD (ratio of kobs/[E]T on C3bB and on free FB; SDS-PAGE densitometry of Bb, 37 °C) [2]: 2e+07 fold

C3b C3b (from UniProt P01024)
Kd (Factor B (Homo sapiens)): 1.4 µM

tag-free recombinant human factor D (mature FD) (from UniProt P00746 26-253) (enzyme)
kobs/[E]T (estimate of kcat/KM) of the cleavage of C3bB (1.1 uM) by FD (0.25 nM), SDS-PAGE densitometry of Bb, 37 °C [3]: 6.5e+06 M⁻¹ s⁻¹
